In US20020143164:

Test system: GST-Ras [GST: P08515]
Sequence (P08515 whole entry, looked up): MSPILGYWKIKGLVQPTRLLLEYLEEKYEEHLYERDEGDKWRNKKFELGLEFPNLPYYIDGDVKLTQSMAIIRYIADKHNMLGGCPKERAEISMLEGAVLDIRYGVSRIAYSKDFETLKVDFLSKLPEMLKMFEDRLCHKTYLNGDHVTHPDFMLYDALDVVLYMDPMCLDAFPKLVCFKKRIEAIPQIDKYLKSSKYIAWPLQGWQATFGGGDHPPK

## Flag-tagged full-length RasGRF2
  fold Ras activation in vitro (bound 32P-GTP, against Ras without GRFs set to 1): the 4.5 fold activation conferred by GRF2, used as a control
